Laboratory results taken from patent US20060058505A1, “Nucleic acid and polypeptide linked to breast cancer and uses therefor” (priority 2001, published 2006).

T1: His-tagged N-terminal SH3 domain containing region of rasGAP^120 (Homo sapiens, UniProt P20936)
T1 construct: containing amino acids 1-356 which includes the full SH3 domain of rasGAP^120; made in house; host or cells: E. coli (DH5), IPTG induction; used as bacterial lysate
T1 sequence (P20936 1-356): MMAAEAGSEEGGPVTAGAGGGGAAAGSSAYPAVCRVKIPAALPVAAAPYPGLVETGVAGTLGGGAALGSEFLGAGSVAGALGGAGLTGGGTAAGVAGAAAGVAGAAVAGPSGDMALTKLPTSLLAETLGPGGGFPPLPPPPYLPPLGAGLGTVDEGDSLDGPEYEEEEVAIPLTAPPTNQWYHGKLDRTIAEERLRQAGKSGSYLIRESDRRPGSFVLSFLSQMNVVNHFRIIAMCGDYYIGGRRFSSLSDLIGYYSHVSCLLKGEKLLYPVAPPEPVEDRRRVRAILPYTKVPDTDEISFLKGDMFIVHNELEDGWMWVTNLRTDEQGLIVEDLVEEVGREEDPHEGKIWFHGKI

B1: δ-2a-N329: GST fusion of truncated G3BP-2a peptide; number is the amino acid at the truncation site (protein, UniProt Q9UN86 1-329, looked up, fragment)
chain: MVMEKPSPLLVGREFVRQYYTLLNKAPEYLHRFYGRNSSYVHGGVDASGKPQEAVYGQNDIHHKVLSLNFSECHTKIRHVDAHATLSDGVVVQVMGLLSNSGQPERKFMQTFVLAPEGSVPNKFYVHNDMFRYEDEVFGDSEPELDEESEDEVEEEQEERQPSPEPVQENANSGYYEAHPVTNGIEEPLEESSHEPEPEPESETKTEELKPQVEEKNLEELEEKSTTPPPAEPVSLPQEPPKAFSWASVTSKNLPPSGTVSSSGIPPHVKAPVSQPRVEAKPEVQSQPPRVREQRPRERPGFPPRGPRPGRGDMEQNDSDNRRIIRYPD
modifications: isoform 2a GST fusion
notes: GST fusion of truncated G3BP-2a peptide; number is the amino acid at the truncation site
B2: δ-2a-N257: GST fusion of truncated G3BP-2a peptide; number is the amino acid at the truncation site (protein, UniProt Q9UN86 1-257, looked up, fragment)
chain: MVMEKPSPLLVGREFVRQYYTLLNKAPEYLHRFYGRNSSYVHGGVDASGKPQEAVYGQNDIHHKVLSLNFSECHTKIRHVDAHATLSDGVVVQVMGLLSNSGQPERKFMQTFVLAPEGSVPNKFYVHNDMFRYEDEVFGDSEPELDEESEDEVEEEQEERQPSPEPVQENANSGYYEAHPVTNGIEEPLEESSHEPEPEPESETKTEELKPQVEEKNLEELEEKSTTPPPAEPVSLPQEPPKAFSWASVTSKNLPPS
modifications: isoform 2a GST fusion
notes: as for B1
B3: δ-2a-N146: GST fusion of truncated G3BP-2a peptide including the N-terminal amino acids 1 to 146 (NTF2-like domain) (protein, UniProt Q9UN86 1-146, looked up, fragment)
chain: MVMEKPSPLLVGREFVRQYYTLLNKAPEYLHRFYGRNSSYVHGGVDASGKPQEAVYGQNDIHHKVLSLNFSECHTKIRHVDAHATLSDGVVVQVMGLLSNSGQPERKFMQTFVLAPEGSVPNKFYVHNDMFRYEDEVFGDSEPELD
modifications: isoform 2a GST fusion
B4: δ-2a-N205: GST fusion of truncated G3BP-2a peptide; number is the amino acid at the truncation site (protein, UniProt Q9UN86 1-205, looked up, fragment)
chain: MVMEKPSPLLVGREFVRQYYTLLNKAPEYLHRFYGRNSSYVHGGVDASGKPQEAVYGQNDIHHKVLSLNFSECHTKIRHVDAHATLSDGVVVQVMGLLSNSGQPERKFMQTFVLAPEGSVPNKFYVHNDMFRYEDEVFGDSEPELDEESEDEVEEEQEERQPSPEPVQENANSGYYEAHPVTNGIEEPLEESSHEPEPEPESETK
modifications: isoform 2a GST fusion
notes: as for B1
B5: full length G3BP-2a: full length G3BP-2a expressed as GST-fusion protein (protein)
chain: MVMEKPSPLLVGREFVRQYYTLLNKAPEYLHRFYGRNSSYVHGGVDASGKPQEAVYGQNDIHHKVLSLNFSECHTKIRHVDAHATLSDGVVVQVMGLLSNSGQPERKFMQTFVLAPEGSVPNKFYVHNDMFRYEDEVFGDSEPELDEESEDEVEEEQEERQPSPEPVQENANSGYYEAHPVTNGIEEPLEESSHEPEPEPESETKTEELKPQVEEKNLEELEEKSTTPPPAEPVSLPQEPPKAFSWASVTSKNLPPSGTVSSSGIPSHVKAPVSQPRVEAKPEVQSQPPRVREQRPRERPGFPPRGPRPGRGDMEQNDSDNRRIIRYPDSHQLFVGNLPHDIDENELKEFFMSFGNVVELRINTKGVGGKLPNFGFVVFDDSEPVQRILIAKPIMFRGEVRLNVEEKKTRAARERETRGGGDDRRDIRRNDRGPGGPRGIVGGGMMRDRDGRGPPPRGGMAQKLGSGRGTGQMEGRFTGQRR
modifications: left off: a dimerising Fc or GST
notes: full length G3BP-2a expressed as GST-fusion protein

Biological target: T2, HLA-A*0201 molecule (Homo sapiens, UniProt P04439, D140Y/D185E/D98H/E176V/E277Q/G131W/G231S/I119V/I121R/I166T/I218V/L300P/L318F/N151K/N90K/P208A/P217A/Q86G/Q94H/R138H/R169H/T345S)
T2 construct: endogenous in cells; host or cells: T2 cells
Assay: MHC/peptide binding assay (T2 binding assay)
Settings: reference influenza MP 58-66 peptide

Molecule | binding to the HLA-A*0201 molecule
IMFRGEVRL (human) [Peptide 2] | affinity equal to that of the control influenza MP 58-66 peptide
KLPNFGFVV (Human) [Peptide 1] | affinity equal to that of the control influenza MP 58-66 peptide

Biological target: T3, HLA-A*0201 molecule on T2 cells
T3 construct: whole, on cells
Assay: T2 binding assay, HLA expression by flow cytometry
Settings: not given

Molecule | binding result
KLPNFGFVV [Peptide 1 of G3BP-2 (KLPNFGFVV)] | binds
IMFRGEVRL [Peptide 2 of G3BP-2 (IMFRGEVRL)] | binds

Biological target: T1, His-tagged N-terminal SH3 domain containing region of rasGAP^120
Assay: bead binding assay of GST-G3BP peptides with Western detection by anti-His antibody
Settings: GST fusions bound to glutathione beads
Excerpt: However, the region within the G3BPs responsible for the observed interaction with rasGAP^120 has not been thoroughly investigated. Initially it was presumed that the interactions would be facilitated through proline rich motifs that are known to interact with SH3 domains (Lee et al. 1996). To further map the interactions between G3BPs and the SH3 domain of rasGAP^120 several GST-G3BP peptide fusions were expressed (FIG. 4) and probed in bead binding assays with His-tagged N-terminal rasGAP^120 peptides. The G3BP peptide constructs were designed to represent truncated proteins containing single or multiple domains as well as peptides that would contain isolated proline rich motifs (FIG. 4). In the assays GST-G3BP peptides are bound to glutathione beads and His-tagged N-terminal rasGAP^120 is added to the different constructs. Specific protein-protein interactions between the G3BP peptides and the SH3 domain of rasGAP^120 are detected by running the bound proteins on a Western blot and identifying His-tagged rasGAP^120 by probing with an anti-His antibody. […] No interactions were detected with the other domains of G3BP including the Acid-Rich domain, the RRM or the RGG-rich domain (FIG. 4).
Truncated cDNAs representing either N-terminal or C-Terminal sequences of G3BP-1 and G3BP-2a (FIG. 2) were subcloned into bacterial GST-fusion expression vectors (pGex, Pharmacia) so that the recombinant fusion proteins could be expressed and used in bead binding assays (see below) to identify the sub-domains of G3BP that interact with the SH3 domain of rasGAP^120. The vectors containing the recombinant fusion protein construct were transformed into competent DH5′ E. Coli and expressed by IPTG induction. To collect the recombinant proteins the cells were washed and resuspended in PBS and sonicated to release the fusion proteins.
The N-terminal domain of rasGAP^120 (kindly provided by Prof. I.G. Macara, University of Virginia) containing amino acids 1-356 which includes the full SH3 domain of rasGAP^120 was subcloned into proEX HT bacterial expression vector (Life Technologies) and expressed as described above.
Glutathione columns (Pharmacia) were blocked overnight at 4° C. in 1× binding buffer A (50 mM HEPES pH 7.4, 100 mM NaCl, 5 mM MgCl2, 50 mg/ml BSA, 1 mM DTT, 1 mM PMFS and protease inhibitors (Protease inhibitor cocktail, Roche Diagnostics, Australia). The following day the columns were washed twice with binding buffer A. Bacterial lysates containing either expressed GST alone or GST fusion proteins were diluted 1:1 with 2× binding buffer A and added to the equilibrated GST columns, the columns were gently rocked overnight at 4° C. To remove excess proteins the columns were washed twice in 1× binding buffer A. Bacterial lysates containing the His-tagged N-terminal of rasGAP^120 protein were combined with an equal volume of 2× binding buffer A containing 200 mg/ml BSA and 0.1% Tween. In addition to the high concentration of BSA, which is used to block non-specific protein-protein interactions, Ethidium bromide was added to a final concentration of 25 ng/ml to abrogate non-specific interactions caused by excess bacterial genomic DNA and bacterial RNA. This mix was then added to the pre-bound GST columns (above) and allowed to bind for 2 hrs at 4° C. The columns were then washed three times with binding buffer B (50 mM HEPES pH 7.4, 200 mM NaCl, 5 mM MgCl2, 1 mM DTT, 1 mM PMFS and protease inhibitors).
One μl of the GST beads complexed with proteins, as described above, was added to an equal volume of 2×PAGE loading dye, heated for 5 mins at 95° C. and loaded onto a 7.5% Polyacrylamide gel and run at 100V for 3 hours. The proteins were transferred to Nitrocellulose and probed with anti-His antibodies (Tetra-His antibody, Qiagen). Columns, which were bound with GST alone, were used as negative controls to ensure no non-specific His-tagged N-terminal rasGAP^120 remained associated with the columns. […]

Molecule | interaction with the N-terminal SH3 domain containing region of rasGAP^120
δ-1-N229: GST fusion of truncated G3BP-1 peptide; number is the amino acid at the truncation site | interact
full length G3BP-1: full length G3BP-1 expressed as GST-fusion protein | interact
δ-1-N309: GST fusion of truncated G3BP-1 peptide; number is the amino acid at the truncation site | interact
B1 | interacted
B2 | interacted
B3 | interacted
B4 | interacted
B5 | interacted

Tested on: peripheral blood mononuclear cells (PBMC) from healthy individuals
Assay: CTL responses induced by DC in PBMC, tested in IFN-γ ELISPOT
Format: cell-based
Settings: after one (and two) round of stimulation, 2 separate donors
Procedure: The various peptides were evaluated for the generation of CTL responses induced by DC in peripheral blood mononuclear cells (PBMC) from healthy individuals and tested in ELISPOT (Gonzalez et al, 2000). T2 cells (target) pulsed with Peptide 1 or no peptide were labelled with ^51Cr and incubated with clone IH7 (effector) at various ratios. After 4 hours, ^51Cr released from lysed cells was measured and the percentage of specific lysis calculated with the formula: 100×(experimental release−spontaneous release)/(total release−spontaneous release). Total release was obtained with detergent lysis of labelled target.
Confirming this finding, we generated Peptide 1 specific CTL clones capable of identifying peptide-loaded targets in a classical chromium release assay (FIG. 11), the desired profile for an efficient anti-tumor response (Lopez and Hart, 2002), incorporated herein by reference. These clones will be instrumental in the evaluation of the expression of this antigen in cancer cells, allowing the formal evaluation of this molecule as a TAA.

Molecule | CTL responses: IFN-γ producing peptide specific CD8+ lymphocytes
KLPNFGFVV (Human) [Peptide 1] | Strong responses
